Experimental data taken from publication PMC2195822 (The Journal of Experimental Medicine, 2000).
Like-named read-outs stand apart in the source and are kept apart here. No end group written: not given here.

Legend:
[1] = Diffusion–sedimentation equilibrium; type: physicochemical; conditions: 150 μM peptide
AUC [2] = biological target: the molecule itself; assay: AUC
AUC [3] = biological target: the molecule itself; assay: AUC; remark: listed apart in the source
AUC [4] = biological target: the molecule itself; assay: AUC; remark: listed apart in the source
AUC [5] = biological target: the molecule itself; assay: AUC; remark: listed apart in the source

| Molecule | stoichiometry N (AUC [2]) | stoichiometry N (AUC [3]) | further results |
| --- | --- | --- | --- |
| SSTKKTQLQLQ [p5–15] | – | – | quaternary structure at 150 μM [1]: dimers |
| APTSSSTKKTQLQLEHLLLDLQMILNGINNC(fluorescein)-NH2 [p1–30Cys labeled on the terminal Cys31 with a fluorescein group (p1–30Cys-FLC)] | 4 | 8 | – |
| APTSSSTKKTQLQLEHLLLDLQMILNGINNC [IL-2 peptide p1–30Cys] | 4 | 8 | – |
| TQLQLEHLLLDLQMILNGINN [IL-2 peptide p10–30] | – | – | stoichiometry N (AUC [4]): 4 |
| APTSSSTKKTQLQLEHLLLDLQMILNGINN-NH2 [peptide p1–30 (amino acids 1–30 of human IL-2, covering the entire α helix A)] | – | 8 | – |
| soluble IL-2Rβ 31–230 (residues 31–230 of the IL-2Rβ chain, most of the extracellular part) (domain or fragment, human, UniProt P14784 31-230, looked up) TSQFTCFYNSRANISCVWSQDGALQDTSCQVHAWPDRRRWNQTCELLPVSQASWACNLILGAPDSQKLTTVDIVTLRVLCREGVRWRVMAIQDFKPFENLRLMAPISLQVVHVETHRCNISWEISQASHYFERHLEFEARTLSPGHTWEEAPLLTLKQKQEWICLETLTPDTQYEFQVRVKPLQGEFTTWSPWSQPLAFR | – | – | Kd (AUC [5]): 3000 nM; stoichiometry N (AUC [5]): 2 |
